Measurements: the Human Domainome abundance scans (Beltran et al. 2025)
± gives the uncertainty stated by the source.

B1: Transcription elongation regulator 1-like protein, residues 448 to 504; numbered along this chain, Q5VWI1 (parent)
chain: LPLEERVTHFRDMLLERGVSAFSTWEKELHKIVFDPRYLLLNSEERKQIFEQFVKTR

Variants of: B1
Assay: abundance fitness (aPCA) (normalised: wild type 0, dead -1); higher = more abundant; growth selection in yeast, the domain comes from the species named
Conditions: Homo sapiens
With E45S the abundance fitness was -0.514 ± 0.21.
Work on E45H yielded an abundance fitness of -0.204 ± 0.43.
E45P showed an abundance fitness of -0.791 ± 0.28.
E45I showed an abundance fitness of -0.242 ± 0.46.
In the case of T24V, the abundance fitness is reported as -0.59 ± 0.12.
In the case of T24Q, the abundance fitness is reported as -0.503 ± 0.46.
T56E gave an abundance fitness of 0.336 ± 0.26.
Work on T56R yielded an abundance fitness of -0.456 ± 0.096.
Variant T56G has an abundance fitness of -0.303 ± 0.089.
In the case of Y38A, the abundance fitness is reported as -0.815 ± 0.32.
Work on Y38S yielded an abundance fitness of -0.898 ± 0.28.
Variant Y38M has an abundance fitness of -0.801 ± 0.46.
Variant K55E has an abundance fitness of 0.209 ± 0.15.
Work on K55N yielded an abundance fitness of -0.267 ± 0.2.
Variant K55A has an abundance fitness of -0.266 ± 0.12.
In the case of K55S, the abundance fitness is reported as -0.04 ± 0.11.
Variant D12W has an abundance fitness of -0.059 ± 0.16.
In the case of D12P, the abundance fitness is reported as -0.83 ± 0.21.
D12I gave an abundance fitness of -0.177 ± 0.33.
In the case of D12C, the abundance fitness is reported as -0.578 ± 0.45.
For D12G, the abundance fitness was -0.381 ± 0.19.
With D12A the abundance fitness was -0.335 ± 0.33.
With D12R the abundance fitness was -0.283 ± 0.14.
Variant D12S has an abundance fitness of -0.237 ± 0.098.
Variant Q52S has an abundance fitness of -0.151 ± 0.07.
For Q52V, the abundance fitness was -0.526 ± 0.09.
With Q52H the abundance fitness was -0.426 ± 0.097.
In the case of Q52D, the abundance fitness is reported as 0.193 ± 0.15.
For Q52T, the abundance fitness was -0.33 ± 0.088.
Variant Q52I has an abundance fitness of -0.592 ± 0.094.
In the case of Q52A, the abundance fitness is reported as -0.395 ± 0.1.
N42V gave an abundance fitness of -0.924 ± 0.35.
With N42W the abundance fitness was -0.733 ± 0.35.
With W25G the abundance fitness was -0.898 ± 0.16.
Work on W25S yielded an abundance fitness of -0.55 ± 0.28.
Variant W25R has an abundance fitness of -0.531 ± 0.12.
W25V gave an abundance fitness of -0.668 ± 0.11.
W25L gave an abundance fitness of -0.795 ± 0.29.
H30N gave an abundance fitness of -0.547 ± 0.35.
H30V showed an abundance fitness of -0.608 ± 0.21.
Work on H30K yielded an abundance fitness of -0.403 ± 0.25.
With H30G the abundance fitness was -0.505 ± 0.19.
H30A showed an abundance fitness of -0.714 ± 0.29.
In the case of K47F, the abundance fitness is reported as -0.04 ± 0.36.
K47W showed an abundance fitness of -0.602 ± 0.37.
K47S showed an abundance fitness of -0.627 ± 0.19.
Variant K47E has an abundance fitness of -0.58 ± 0.4.
For K47H, the abundance fitness was -0.109 ± 0.4.
Work on K47D yielded an abundance fitness of -0.747 ± 0.26.
In the case of E28L, the abundance fitness is reported as -0.446 ± 0.33.
For E28F, the abundance fitness was -0.796 ± 0.15.
With E28R the abundance fitness was -0.576 ± 0.13.
E28I showed an abundance fitness of -1.02 ± 0.37.
Variant E28S has an abundance fitness of -0.659 ± 0.2.
In the case of E51G, the abundance fitness is reported as -0.618 ± 0.16.
For E51F, the abundance fitness was -0.288 ± 0.083.
Work on E51P yielded an abundance fitness of -0.929 ± 0.13.
For E51Q, the abundance fitness was -0.255 ± 0.078.
Variant E51S has an abundance fitness of -0.28 ± 0.064.
Work on E51N yielded an abundance fitness of -0.147 ± 0.079.
E51W gave an abundance fitness of -0.766 ± 0.21.
Variant E51V has an abundance fitness of -0.669 ± 0.16.
E51H showed an abundance fitness of -0.077 ± 0.1.
For E51M, the abundance fitness was -0.413 ± 0.093.
K31R gave an abundance fitness of -0.662 ± 0.13.
K31C showed an abundance fitness of -0.457 ± 0.15.
With K31V the abundance fitness was -0.705 ± 0.12.
With K31L the abundance fitness was -0.781 ± 0.38.
With R11G the abundance fitness was -0.586 ± 0.26.
With R11C the abundance fitness was -0.5 ± 0.36.
R11V gave an abundance fitness of -0.626 ± 0.3.
In the case of R11L, the abundance fitness is reported as -0.396 ± 0.17.
With R11Q the abundance fitness was -0.244 ± 0.15.
In the case of V7M, the abundance fitness is reported as 0.434 ± 0.21.
With V7Y the abundance fitness was -0.075 ± 0.35.
Work on V7A yielded an abundance fitness of 0.039 ± 0.16.
With V7C the abundance fitness was -0.568 ± 0.2.
I49A showed an abundance fitness of -0.517 ± 0.28.
Work on I49T yielded an abundance fitness of 0.117 ± 0.18.
Work on I49C yielded an abundance fitness of -0.261 ± 0.23.
Work on I49R yielded an abundance fitness of -0.782 ± 0.31.
In the case of I49W, the abundance fitness is reported as -0.743 ± 0.24.
I49V gave an abundance fitness of 0.082 ± 0.13.
For E26Q, the abundance fitness was -0.355 ± 0.46.
In the case of E26F, the abundance fitness is reported as -0.617 ± 0.17.
With E26M the abundance fitness was -0.09 ± 0.32.
Variant E26V has an abundance fitness of -0.914 ± 0.24.
Variant E26S has an abundance fitness of -0.658 ± 0.2.
In the case of V54T, the abundance fitness is reported as -0.093 ± 0.19.
V54G showed an abundance fitness of -0.632 ± 0.11.
In the case of V54A, the abundance fitness is reported as -0.451 ± 0.086.
Work on V54I yielded an abundance fitness of -0.199 ± 0.15.
With L15C the abundance fitness was -0.454 ± 0.17.
Variant L15D has an abundance fitness of -0.142 ± 0.47.
In the case of L15V, the abundance fitness is reported as -0.207 ± 0.15.
Work on L15N yielded an abundance fitness of -0.154 ± 0.37.
L15W gave an abundance fitness of -0.406 ± 0.15.
L15A gave an abundance fitness of -0.226 ± 0.19.
In the case of L15F, the abundance fitness is reported as -0.325 ± 0.38.
With L15S the abundance fitness was 0.054 ± 0.1.
Work on L15K yielded an abundance fitness of -0.161 ± 0.26.
R46W showed an abundance fitness of -0.012 ± 0.16.
In the case of R46L, the abundance fitness is reported as -0.697 ± 0.13.
Work on R46Y yielded an abundance fitness of -0.162 ± 0.38.
With R46F the abundance fitness was -0.533 ± 0.45.
With S20E the abundance fitness was -0.563 ± 0.23.
S20W gave an abundance fitness of -0.371 ± 0.18.
In the case of S20L, the abundance fitness is reported as -0.594 ± 0.22.
Variant S20P has an abundance fitness of -0.535 ± 0.45.
With S20R the abundance fitness was -1 ± 0.38.
S20V showed an abundance fitness of -0.691 ± 0.25.
S20D gave an abundance fitness of -0.185 ± 0.22.
In the case of H9L, the abundance fitness is reported as 0.279 ± 0.11.
H9T showed an abundance fitness of -0.456 ± 0.15.
H9A gave an abundance fitness of 0.001 ± 0.076.
H9M gave an abundance fitness of 0.266 ± 0.075.
H9Q gave an abundance fitness of 0.232 ± 0.15.
Work on L1I yielded an abundance fitness of 2.04 ± 0.48.
With L1A the abundance fitness was -0.321 ± 0.33.
L1V showed an abundance fitness of -0.4 ± 0.18.
In the case of F53S, the abundance fitness is reported as -0.718 ± 0.12.
Work on F53H yielded an abundance fitness of -0.466 ± 0.39.
F53R showed an abundance fitness of -0.837 ± 0.18.
F53V showed an abundance fitness of -0.797 ± 0.12.
F53L gave an abundance fitness of -0.747 ± 0.19.
For F53E, the abundance fitness was -0.964 ± 0.35.
For I32R, the abundance fitness was -0.538 ± 0.16.
Work on I32Y yielded an abundance fitness of 0.058 ± 0.14.
Variant I32C has an abundance fitness of -0.484 ± 0.39.
With I32A the abundance fitness was -0.909 ± 0.33.
I32P showed an abundance fitness of -0.418 ± 0.12.
I32W showed an abundance fitness of -0.514 ± 0.32.
With I32S the abundance fitness was -0.916 ± 0.23.
For I32K, the abundance fitness was -0.847 ± 0.32.
In the case of G18C, the abundance fitness is reported as -0.714 ± 0.44.
G18K gave an abundance fitness of 0.719 ± 0.15.
For G18M, the abundance fitness was -0.96 ± 0.36.
G18S gave an abundance fitness of -0.33 ± 0.14.
In the case of G18E, the abundance fitness is reported as 0.071 ± 0.12.
G18V gave an abundance fitness of -0.612 ± 0.26.
L29T gave an abundance fitness of -0.253 ± 0.11.
Variant L29P has an abundance fitness of -0.722 ± 0.17.
L29R showed an abundance fitness of 0.095 ± 0.13.
Variant L29A has an abundance fitness of -0.409 ± 0.17.
Work on L29E yielded an abundance fitness of 0.139 ± 0.076.
Work on L40V yielded an abundance fitness of -0.877 ± 0.18.
In the case of L40K, the abundance fitness is reported as -0.966 ± 0.28.
Work on L40G yielded an abundance fitness of -0.349 ± 0.13.
Work on L40W yielded an abundance fitness of -0.639 ± 0.26.
Work on Q48S yielded an abundance fitness of -0.139 ± 0.1.
E44V showed an abundance fitness of -0.159 ± 0.097.
With E44Q the abundance fitness was -0.143 ± 0.11.
Work on E44P yielded an abundance fitness of -0.606 ± 0.32.
E44S showed an abundance fitness of -0.187 ± 0.12.
E44H showed an abundance fitness of -0.415 ± 0.28.
In the case of E44T, the abundance fitness is reported as -0.105 ± 0.084.
E44W gave an abundance fitness of -0.22 ± 0.12.
E44M showed an abundance fitness of 0.253 ± 0.24.
F34I showed an abundance fitness of 0.199 ± 0.28.
F34H showed an abundance fitness of 0.156 ± 0.35.
F34D gave an abundance fitness of 0.351 ± 0.38.
With F34G the abundance fitness was 0.11 ± 0.074.
With L41F the abundance fitness was -0.583 ± 0.1.
Variant L41C has an abundance fitness of -0.734 ± 0.12.
Variant L41A has an abundance fitness of -0.681 ± 0.1.
For L41G, the abundance fitness was -0.569 ± 0.11.
With L41R the abundance fitness was -0.616 ± 0.086.
